Our source for the peptide exchange yield values is US20200000897A1 (published 2020).

This assay deals with T1, HLA-A*03:01 (human).
T1 construct: MHC class I monomer first loaded with a UV-sensitive peptide that is cleaved by UV irradiation and exchanged for the test peptide; captured on streptavidin plates; also called peptide-receptive MHC molecules
As to the kind of experiment: UV-ligand exchange, anti-b2m ELISA; peptide exchange yield grade (>10% +, >20% ++, >50% +++, >75% ++++). The source says: Candidate peptides for T cell based therapies according to the present invention were further tested for their MHC binding capacity (affinity). The individual peptide-MHC complexes were produced by UV-ligand exchange, where a UV-sensitive peptide is cleaved upon UV-irradiation and exchanged with the peptide of interest as analyzed. Only peptide candidates that can effectively bind and stabilize the peptide-receptive MHC molecules prevent dissociation of the MHC complexes. To determine the yield of the exchange reaction, an ELISA was performed based on the detection of the light chain (β2m) of stabilized MHC complexes. The assay was performed as generally described in Rodenko et al. (Rodenko et al., 2006)
96 well MAXISorp plates (NUNC) were coated over night with 2 ug/ml streptavidin in PBS at room temperature, washed 4× and blocked forl h at 37° C. in 2% BSA containing blocking buffer. Refolded HLA-A*02:01/MLA-001 monomers served as standards, covering the range of 15-500 ng/ml. Peptide-MHC monomers of the UV-exchange reaction were diluted 100-fold in blocking buffer. Samples were incubated for 1 h at 37° C., washed four times, incubated with 2 ug/ml HRP conjugated anti-β2m for 1 h at 37° C., washed again and detected with TMB solution that is stopped with […]. Absorption was measured at 450 nm.
(In an ELISA, binding on a coated surface is turned into a signal by an enzyme label.)
On to RVSSVKLISK, for which the peptide exchange yield was in the range of 50 to 75%.
Molecule IVYPSATDKTK registered a peptide exchange yield of 50 to 75%.
For ALLGVIIAKK the value was > 75%; for ALPRQAFHSK, > 75%; for RIYVYVKRK, 50 to 75%.
The figure for KINPTASLK is 50 to 75%; for RVYPRPPSK it is > 75%; for AVIGALLAVGATK it is 50 to 75%.
Regarding RVYPRPPSKTY, the peptide exchange yield is > 75%.
For RVYEGDGRNSLK the value was 50 to 75%.
The figure for KTCQVSGLLY is > 75%; for KVFEEPEDFLK it is 20 to 50%.
On to RSKWSNVFK, for which the peptide exchange yield was > 75%.
On to VAFIPLSNK, for which the peptide exchange yield is > 75%.
The figure for KMMKRLMTVEK is > 75%; for EGLFLLGCVK it is 50 to 75%.
For QVRDTLKIVFK the value was 50 to 75%.
For VIGTTSSPK the value was 50 to 75%.
SSLPRAFQK: the peptide exchange yield fell in the range of 20 to 50%.
For the molecule IVFPDVISK, the peptide exchange yield is > 75%.
The figure for KVYIPPIINK is > 75%; for ALAAKLEVK it is > 75%; for KLQAKVLQY it is > 75%.
Take SVLDKLLFH: the peptide exchange yield is > 75%.
For GISNPITTSK the value was > 75%; for RVAEEILIK, 50 to 75%.
In the case of KVADFGLARLLK, the peptide exchange yield was > 75%.
For RVLPPLTRILK the value was > 75%; for KIWQNLRLK, 50 to 75%.
KLSLSHKK showed a peptide exchange yield of 50 to 75%.
For QICLPAIYK the value was > 75%; for SIINFKPLTY, 50 to 75%.
The figure for RVWLGKHYK is > 75%.
In the case of RLYYSFKNITK, the peptide exchange yield was > 75%.
The figure for RLYEMILQR is > 75%.
The figure for KTGWFTLLY is > 75%; for RIVDYLLEK it is > 75%; for KVLEPPLGAR it is 50 to 75%.
Turning to SLYNLGGAK, the peptide exchange yield was > 75%.
As for KLYPTHACR, the peptide exchange yield was > 75%.
Consider RSYVPLAH, for which the peptide exchange yield was > 75%.
Regarding RLKMAQESVSK, the peptide exchange yield was > 75%.
As to RSYSHVVLK, the peptide exchange yield was > 75%.
For RTIDRSVFK the value was > 75%; for KILDRVLSRY, > 75%.
Take AISSTVLGK: the peptide exchange yield is > 75%.
The figure for KVMPKQTWK is 50 to 75%; for LLPTVLIKK it is 50 to 75%; for ALERKFRQK it is > 75%.
Consider RSNPYFQNK, for which the peptide exchange yield was > 75%.
For IVAFIPLSNK, the peptide exchange yield is > 75%.
Turning to RLAVSTRGK, the peptide exchange yield was > 75%.
The figure for KAFNQSSIFTK is 50 to 75%.
The figure for RLYDAYVNR is > 75%; for KIFQGQINK it is > 75%; for SLYDGFLSY it is > 75%.
For RLFPGLYLGY the value was 50 to 75%; for AVYNYPEGAAY, > 75%; for VSLGTPIMK, 50 to 75%.
Turning to SSLAELIAK, the peptide exchange yield was in the range of 20 to 50%.
For KLFTSVFGVGLK, the peptide exchange yield is > 75%.
